Blank lines part the entries; values can stand above or below the binder they belong to.
Experiments:
[1] = target: T1, soluble canine B7-H3 with 6xHis tag at the carboxy terminus; assay: SPR
T1 chain: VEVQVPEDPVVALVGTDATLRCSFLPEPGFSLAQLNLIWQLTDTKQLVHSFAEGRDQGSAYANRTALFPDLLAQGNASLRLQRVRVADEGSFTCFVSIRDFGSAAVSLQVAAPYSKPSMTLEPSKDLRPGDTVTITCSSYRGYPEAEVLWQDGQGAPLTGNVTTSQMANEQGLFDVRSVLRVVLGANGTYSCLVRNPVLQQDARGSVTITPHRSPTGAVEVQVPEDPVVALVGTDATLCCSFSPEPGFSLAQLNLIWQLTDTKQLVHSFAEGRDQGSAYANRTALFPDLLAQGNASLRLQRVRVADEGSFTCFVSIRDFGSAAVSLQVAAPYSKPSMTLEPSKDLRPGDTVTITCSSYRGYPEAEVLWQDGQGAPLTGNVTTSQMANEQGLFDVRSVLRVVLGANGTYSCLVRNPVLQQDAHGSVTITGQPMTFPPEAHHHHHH

[2] = target: T2, soluble human B7-H3 with 6xHis tag at the carboxy terminus (human, UniProt Q5ZPR3 29-466); assay: SPR
T2 chain: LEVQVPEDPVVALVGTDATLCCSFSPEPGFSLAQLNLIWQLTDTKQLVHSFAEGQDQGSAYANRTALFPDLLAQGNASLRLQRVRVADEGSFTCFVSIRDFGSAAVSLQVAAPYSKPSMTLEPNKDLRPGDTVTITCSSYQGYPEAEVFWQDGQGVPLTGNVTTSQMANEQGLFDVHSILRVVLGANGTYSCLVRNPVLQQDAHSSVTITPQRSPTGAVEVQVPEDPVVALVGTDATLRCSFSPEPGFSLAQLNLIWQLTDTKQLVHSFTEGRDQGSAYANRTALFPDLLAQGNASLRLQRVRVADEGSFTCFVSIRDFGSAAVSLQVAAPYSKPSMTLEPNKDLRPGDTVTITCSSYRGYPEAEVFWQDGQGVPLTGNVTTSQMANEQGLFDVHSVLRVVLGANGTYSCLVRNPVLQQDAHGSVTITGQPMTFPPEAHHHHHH

[3] = target: T3, soluble human B7-H3 with 6xHis tag at the carboxy terminus (human, UniProt Q5ZPR3 29-466); assay: ELISA and SPR on soluble human B7-H3-His
T3 construct: extracellular domain; also called hB7-H3; human B7H3(4Ig)-His
T3 sequence: T2 chain
Description: Antibodies hBRCA84D and hBRCA69D were tested in an ELISA for binding to canine B7-H3. Briefly, soluble human B7-H3 and canine B7-H3 were expressed in CHO cells. Each soluble molecule was engineered to express a 6×His tag at the carboxy terminus to aid in purification of the expressed protein. The molecules were purified by nickel column chromatography using standard techniques. ELISA plates were coated with the soluble B7-H3 and allowed to dry. The plates were washed and blocked using standard ELISA techniques. The wells were probed with either hBRCA84D, hBRCA69D or a control hIgG. Secondary detection reagent was added and binding was determined As shown in FIG. 1A (hBRCA84D) and FIG. 1B (hBRCA69D), the antibodies were able to bind to soluble canine B7-H3 (cB7-H3). To determine binding affinity of the hBRCA84D and hBRCA69D antibodies to soluble canine B7-H3, SPR analysis was conducted. As shown in FIGS. 1C and 1D (hBRCA84D) and FIGS. 1E and 1F (BRCA69D) the binding affinities are similar to the binding of the antibodies to soluble human B7-H3 (shown in FIG. 1A and FIG. 1B, respectively).

[4] = target: T4, Human B7-H3 (human, UniProt Q5ZPR3 29-466); assay: SPR
T4 chain: T2 chain

[5] = target: T5, Canine B7-H3; assay: SPR
T5 chain: T1 chain

Kd [1]: 8.4 nM
Kd [2]: 8.8 nM
binding result [3]: binds
B1: hBRCA69D (humanized antibody BRCA69D) (antibody, V domains shown)
VH: QVQLVQSGAEVKKPGASVKVSCKASGYTFTSYWMQWVRQAPGQGLEWMGTIYPGDGDTRYTQKFKGRVTITADKSTSTAYMELSSLRSEDTAVYYCARRGIPRLWYFDVWGQGTTVTVSS
VL: DIQMTQSPSSLSASVGDRVTITCRASQDISNYLNWYQQKPGKAPKLLIYYTSRLHSGVPSRFSGSGSGTDFTLTISSLQPEDIATYYCQQGNTLPPTFGGGTKLEIK
notes: Residue limits are my derivation

Kd [4]: 45 nM
Kd [5]: 39 nM
B2: hBRCA84D (antibody, V domains shown)
VH: EVQLVESGGGLVQPGGSLRLSCAASGFTFSSFGMHWVRQAPGKGLEWVAYISSDSSAIYYADTVKGRFTISRDNAKNSLYLQMNSLRDEDTAVYYCGRGRENIYYGSRLDYWGQGTTVTVSS
VL: DIQLTQSPSFLSASVGDRVTITCKASQNVDTNVAWYQQKPGKAPKALIYSASYRYSGVPSRFSGSGSGTDFTLTISSLQPEDFATYYCQQYNNYPFTFGQGTKLEIKR

— patent US20140255407A1 (MacroGenics, published 2014)
